For the assay, the target named is T1, full length rat SD (Shen-Dan) protein expressed from pSDf in HEK293T cells (rat, UniProt Q2VWP9 24-1193).
T1 construct: Full-length rat SD amplified from E10.5 rat cDNA and ligated into pEF1/Myc-His (pSDf); also called SD-expressing cells
T1 sequence: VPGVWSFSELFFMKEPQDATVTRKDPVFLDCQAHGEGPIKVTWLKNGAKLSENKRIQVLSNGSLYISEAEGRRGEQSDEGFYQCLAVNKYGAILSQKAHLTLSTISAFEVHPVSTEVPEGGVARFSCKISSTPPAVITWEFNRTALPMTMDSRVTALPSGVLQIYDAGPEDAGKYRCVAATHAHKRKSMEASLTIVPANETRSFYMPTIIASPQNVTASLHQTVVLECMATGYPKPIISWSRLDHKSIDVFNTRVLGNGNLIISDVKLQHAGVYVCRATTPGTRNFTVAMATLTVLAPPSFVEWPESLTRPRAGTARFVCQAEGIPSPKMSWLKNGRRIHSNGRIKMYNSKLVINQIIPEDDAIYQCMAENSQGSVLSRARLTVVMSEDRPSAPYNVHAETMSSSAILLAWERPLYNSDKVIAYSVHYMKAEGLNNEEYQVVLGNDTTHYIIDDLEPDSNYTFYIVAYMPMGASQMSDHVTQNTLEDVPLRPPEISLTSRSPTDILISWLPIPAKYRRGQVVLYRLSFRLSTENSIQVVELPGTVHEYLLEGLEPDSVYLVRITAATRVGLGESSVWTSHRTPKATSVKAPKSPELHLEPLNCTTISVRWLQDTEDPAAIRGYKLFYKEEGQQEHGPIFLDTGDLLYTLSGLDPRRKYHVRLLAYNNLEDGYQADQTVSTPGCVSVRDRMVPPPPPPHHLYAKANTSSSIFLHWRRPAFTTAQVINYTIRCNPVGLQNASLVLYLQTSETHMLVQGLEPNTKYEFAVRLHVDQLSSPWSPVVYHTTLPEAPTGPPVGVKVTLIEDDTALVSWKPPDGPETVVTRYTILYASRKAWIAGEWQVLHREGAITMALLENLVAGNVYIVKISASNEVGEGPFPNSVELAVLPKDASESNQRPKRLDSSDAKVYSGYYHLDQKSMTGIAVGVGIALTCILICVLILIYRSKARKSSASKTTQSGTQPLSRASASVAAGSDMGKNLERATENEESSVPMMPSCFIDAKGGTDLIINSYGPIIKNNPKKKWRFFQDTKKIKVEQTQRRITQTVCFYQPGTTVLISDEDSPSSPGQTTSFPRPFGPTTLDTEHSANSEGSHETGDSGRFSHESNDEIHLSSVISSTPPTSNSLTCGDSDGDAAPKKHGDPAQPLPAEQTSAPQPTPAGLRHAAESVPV
As to the kind of experiment: in situ binding assay, conditioned medium on pSDf-transfected HEK293T cells, immunofluorescence (anti-myc 9E10). The text has this:
HEDJ/ERdj3 binds to the SD extracellular domain. a, Schematic representation of eight HEDJ/ERdj3 clones identified by yeast two-hybrid screening and their interaction with the SD extracellular domain, shown as activity in an X-gal assay. b, Various sd deletion mutants were examined for their ability to interact with C-terminal HEDJ/ERdj3. c, HEK293T cells were transiently transfected with pHEDJ or a control vector. Three days after transfection, conditioned medium (CM) and total cell lysate (TCL) were subjected to Western blotting to detect HEDJ/ERdj3 using anti-myc antibody. d, Quantification of HEDJ/ERdj3 binding to SD-expressing cells. HEK293T cells were transiently transfected with pSDf or control vector. SD expression was detected by W4 antiserum. Binding of HEDJ/ERdj3 on the cells was detected by anti-myc mAb. Cell nuclei were visualized by DAPI. […] Data were normalized relative to fluorescence intensity of the cells transfected with pSDf in the presence of control CM. Results are shown as means±s.e.m., from a total of 50 cells. (*, p<0.001; by student's t-test).
HEK293T cells were transfected with pSDf using FuGENE 6 (Roche). […] The fluorescence signal was quantified using ImageJ software (NIH, Bethesda, Md., USA).

B1: C-terminal His-myc-tagged HEDJ/ERdj3 protein secreted from pHEDJ-transfected HEK293T cells (ligand, mouse, UniProt Q99KV1 23-358, looked up)
chain: GRDFYKILGVPRSASIKDIKKAYRKLALQLHPDRNPDDPQAQEKFQDLGAAYEVLSDSEKRKQYDTYGEEGLKDGHQSSHGDIFSHFFGDFGFMFGGTPRQQDRNIPRGSDIIVDLEVTLEEVYAGNFVEVVRNKPVARQAPGKRKCNCRQEMRTTQLGPGRFQMTQEVVCDECPNVKLVNEERTLEVEIEPGVRDGMEYPFIGEGEPHVDGEPGDLRFRIKVVKHRIFERRGDDLYTNVTVSLVEALVGFEMDITHLDGHKVHISRDKITRPGAKLWKKGEGLPNFDNNNIKGSLIITFDVDFPKEQLTEEAKEGIKQLLKQGPVQKVYNGLQGY
notes: mature; also called secreted HEDJ/ERdj3; not shown: C-terminal His-myc tag from pEF1/Myc-His
Take B1: the binding result is recorded as “binds”.

(Values after US20050287664A1 (published 2005).)
